In PMC10653854 (mBio, 2023):
Values joined by “and” are separate entries in the source; they are usually repeats but may differ in a detail not shown here. Equal entries are not always repeated.

Columns and labels:
Conditions in all cases: both partners purified
[1] = target: T1, yellow fever virus (YFV) strain Asibi soluble E ectodomain (sE) (yellow fever virus, strain Asibi); assay: SPR; pH 8; pr injected over immobilized sE; Biacore T200, 25°C
[2] = target: T1, yellow fever virus (YFV) strain Asibi …; assay: ITC
[3] = target: T1, yellow fever virus (YFV) strain Asibi …; assay: SPR; pH 6; pr injected over immobilized sE; Biacore T200, 25°C

B1: recombinant purified yellow fever virus (YFV) pr protein (natural protein)
chain: not shown
Kd [1]: 19.7 nM | koff [1]: 0.00134 s⁻¹ | kon [1]: 70000 M⁻¹ s⁻¹ | dH [2]: -16.6 kcal/mol and -16.3 kcal/mol | stoichiometry N [2]: 0.9 | Kd [3]: 6.2 nM | koff [3]: 0.00236 s⁻¹ | kon [3]: 380000 M⁻¹ s⁻¹
